Assays:
Settings in all cases: protein: recombinant; chain copies: 2; label: Alexa Fluor647 (EMSA); biotin (QCM); blunt; self-complementary palindrome, 2 copies
PZ F219V = biological target: T1, PZ F219V (Vaucheria frigida? (VfAUREO1), UniProt A8QW55 113-348, C162S;C182S;F219V); assay: EMSA; QCM; dark state; low EC50; EMSA: 5% polyacrylamide gel, 25 C, dark or blue light 5 W/m2; QCM: 27 MHz, QCM buffer, 25 C; buffer, salt and pH not given (earlier papers cited); EC50 values (nM, per monomer) only in figures
T1 sequence: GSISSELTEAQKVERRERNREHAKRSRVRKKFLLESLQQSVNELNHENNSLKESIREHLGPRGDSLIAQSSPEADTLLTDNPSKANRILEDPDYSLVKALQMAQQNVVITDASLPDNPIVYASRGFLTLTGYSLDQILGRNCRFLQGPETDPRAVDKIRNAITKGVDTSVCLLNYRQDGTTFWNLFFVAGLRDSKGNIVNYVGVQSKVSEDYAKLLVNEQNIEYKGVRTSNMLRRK

PZ L201A = biological target: T2, PZ L201A (Vaucheria frigida? (VfAUREO1), UniProt A8QW55 113-348, C162S;C182S;L201A); assay: EMSA; QCM; dark state; EC50 lower than wtPZ; EMSA: 5% polyacrylamide gel, 25 C, dark or blue light 5 W/m2; QCM: 27 MHz, QCM buffer, 25 C; buffer, salt and pH not given (earlier papers cited); EC50 values (nM, per monomer) only in figures
T2 sequence: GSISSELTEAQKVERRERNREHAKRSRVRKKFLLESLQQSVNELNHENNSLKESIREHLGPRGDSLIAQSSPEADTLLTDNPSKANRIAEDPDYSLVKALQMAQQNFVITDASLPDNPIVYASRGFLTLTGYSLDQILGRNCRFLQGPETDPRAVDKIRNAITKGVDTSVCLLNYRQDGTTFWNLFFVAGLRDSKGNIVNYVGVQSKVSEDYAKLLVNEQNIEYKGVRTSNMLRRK

[1] = biological target: T3, PZ L201A/L208A/L212A (triple) (Vaucheria frigida? (VfAUREO1), UniProt A8QW55 113-348, C162S;C182S;L201A;L208A;L212A); assay: as above
T3 sequence: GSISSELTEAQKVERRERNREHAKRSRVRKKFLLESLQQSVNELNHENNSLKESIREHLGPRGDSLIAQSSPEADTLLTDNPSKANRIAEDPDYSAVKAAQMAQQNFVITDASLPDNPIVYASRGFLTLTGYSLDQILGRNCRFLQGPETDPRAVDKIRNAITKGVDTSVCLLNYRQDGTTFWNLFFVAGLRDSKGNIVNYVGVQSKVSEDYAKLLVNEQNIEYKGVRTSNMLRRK

PZ L208A = biological target: T4, PZ L208A (Vaucheria frigida? (VfAUREO1), UniProt A8QW55 113-348, C162S;C182S;L208A); assay: as above
T4 sequence: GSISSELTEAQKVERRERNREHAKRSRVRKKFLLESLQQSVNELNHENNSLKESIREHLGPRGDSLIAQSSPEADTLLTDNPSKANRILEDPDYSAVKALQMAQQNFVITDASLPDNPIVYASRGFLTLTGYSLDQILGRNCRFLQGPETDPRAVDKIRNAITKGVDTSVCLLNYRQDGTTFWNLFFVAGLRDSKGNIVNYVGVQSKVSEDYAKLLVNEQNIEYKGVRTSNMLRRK

PZ Q217A = biological target: T5, PZ Q217A (Vaucheria frigida? (VfAUREO1), UniProt A8QW55 113-348, C162S;C182S;Q217A); assay: EMSA; QCM; dark state; EC50 similar to wtPZ; EMSA: 5% polyacrylamide gel, 25 C, dark or blue light 5 W/m2; QCM: 27 MHz, QCM buffer, 25 C; buffer, salt and pH not given (earlier papers cited); EC50 values (nM, per monomer) only in figures
T5 sequence: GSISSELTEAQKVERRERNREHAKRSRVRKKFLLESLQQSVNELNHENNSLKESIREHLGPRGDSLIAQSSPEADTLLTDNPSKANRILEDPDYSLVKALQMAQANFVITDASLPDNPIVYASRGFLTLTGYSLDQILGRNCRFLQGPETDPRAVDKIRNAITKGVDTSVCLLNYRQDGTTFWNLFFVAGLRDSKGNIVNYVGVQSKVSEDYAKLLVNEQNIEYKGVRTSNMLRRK

PZ Q216A = biological target: T6, PZ Q216A (Vaucheria frigida? (VfAUREO1), UniProt A8QW55 113-348, C162S;C182S;Q216A); assay: as above
T6 sequence: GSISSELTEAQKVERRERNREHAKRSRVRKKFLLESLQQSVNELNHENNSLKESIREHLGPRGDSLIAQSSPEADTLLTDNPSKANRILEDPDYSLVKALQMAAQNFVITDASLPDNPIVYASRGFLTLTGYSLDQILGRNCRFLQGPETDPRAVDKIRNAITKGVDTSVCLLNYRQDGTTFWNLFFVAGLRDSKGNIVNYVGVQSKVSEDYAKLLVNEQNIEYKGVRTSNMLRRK

PZ V314I = biological target: T7, PZ V314I (Vaucheria frigida? (VfAUREO1), UniProt A8QW55 113-348, C162S;C182S;V314I); assay: EMSA; QCM; dark state; EC50 similar to light; EMSA: 5% polyacrylamide gel, 25 C, dark or blue light 5 W/m2; QCM: 27 MHz, QCM buffer, 25 C; buffer, salt and pH not given (earlier papers cited); EC50 values (nM, per monomer) only in figures
T7 sequence: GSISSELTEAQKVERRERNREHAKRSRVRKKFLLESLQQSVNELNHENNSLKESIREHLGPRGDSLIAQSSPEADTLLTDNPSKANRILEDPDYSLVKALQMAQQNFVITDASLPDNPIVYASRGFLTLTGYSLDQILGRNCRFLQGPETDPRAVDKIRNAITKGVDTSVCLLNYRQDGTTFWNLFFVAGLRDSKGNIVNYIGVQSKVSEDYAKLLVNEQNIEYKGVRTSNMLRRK

Measured: binding result

B1: dsApo (dsDNA)
DNA 1: GCTGTCTGACGTCAGACAGC
DNA 2: GCTGTCTGACGTCAGACAGC
binds: all assays above

From paper PMC8184817, “Transmission of light signals from the light-oxygen-voltage core via the hydrophobic region of the β-sheet surface in aureochrome-1” (Scientific Reports, 2021)
